Results as given in PMC5777896 (The FEBS journal, 2017).
Read-outs that look alike come from different tables or passages of the source. One block for each molecule: values may come before it.

B1: human Hsc20 (natural protein, UniProt Q8IWL3 72-235, looked up)
chain: DYFSLMDCNRSFRVDTAKLQHRYQQLQRLVHPDFFSQRSQTEKDFSEKHSTLVNDAYKTLLAPLSRGLYLLKLHGIEIPERTDYEMDRQFLIEIMEINEKLAEAESEAAMKEIESIVKAKQKEFTDNVSSAFEQDDFEEAKEILTKMRYFSNIEEKIKLKKIPL
B2: full-length human Nfu (natural protein, UniProt Q9UMS0 10-254, looked up)
chain: GAAAVAAGLRRRFCHMLKNPYTIKKQPLHQFVQRPLFPLPAAFYHPVRYMFIQTQDTPNPNSLKFIPGKPVLETRTMDFPTPAAAFRSPLARQLFRIEGVKSVFFGPDFITVTKENEELDWNLLKPDIYATIMDFFASGLPLVTEETPSGEAGSEEDDEVVAMIKELLDTRIRPTVQEDGGDVIYKGFEDGIVQLKLQGSCTSCPSSIITLKNGIQNMLQFYIPEVEGVEQVMDDESDEKEANSP

Experiments:
human HSPA9 (human) [1] = biological target: human HSPA9 (human) (UniProt P38646)
human HSPA9 (human) [2] = biological target: human HSPA9 (human) (UniProt P38646); assay: ITC
human HSPA9 (human) [3] = biological target: human HSPA9 (human) (UniProt P38646); assay: ITC; remark: listed apart in the source
human HSPA9 (human) [4] = biological target: human HSPA9 (human) (UniProt P38646); assay: ITC; remark: listed apart in the source
human Hsc20 (human) [5] = biological target: human Hsc20 (human) (UniProt Q8IWL3); assay: ITC
human Hsc20 (human) [6] = biological target: human Hsc20 (human) (UniProt Q8IWL3); assay: ITC; remark: listed apart in the source
human HSPA9 (human) [7] = biological target: human HSPA9 (human) (UniProt P38646); assay: ITC; remark: listed apart in the source
IscU (Escherichia coli) = IscU (Escherichia coli) (UniProt P0ACD4); assay: SPR; conditions: cited from earlier work
full-length human Nfu = biological target: B2; assay: ITC
human HSPA9 [8] = biological target: T1, human HSPA9 (human, UniProt P38646 47-679); assay: cell-based or functional assay
human HSPA9 [9] = biological target: T1, human HSPA9; assay: ITC
[10] = biological target: T2, human HSPA9/Hsc20 complex (human, UniProt P38646 47-679; Q8IWL3 72-235); assay: ITC
[11] = biological target: T2, human HSPA9/Hsc20 complex; assay: ITC; remark: listed apart in the source
human Hsc20 = biological target: B1; assay: ITC
human HSPA9 [12] = biological target: T1, human HSPA9; assay: ITC; remark: listed apart in the source

Sequence of human HSPA9 (human) (P38646 47-679): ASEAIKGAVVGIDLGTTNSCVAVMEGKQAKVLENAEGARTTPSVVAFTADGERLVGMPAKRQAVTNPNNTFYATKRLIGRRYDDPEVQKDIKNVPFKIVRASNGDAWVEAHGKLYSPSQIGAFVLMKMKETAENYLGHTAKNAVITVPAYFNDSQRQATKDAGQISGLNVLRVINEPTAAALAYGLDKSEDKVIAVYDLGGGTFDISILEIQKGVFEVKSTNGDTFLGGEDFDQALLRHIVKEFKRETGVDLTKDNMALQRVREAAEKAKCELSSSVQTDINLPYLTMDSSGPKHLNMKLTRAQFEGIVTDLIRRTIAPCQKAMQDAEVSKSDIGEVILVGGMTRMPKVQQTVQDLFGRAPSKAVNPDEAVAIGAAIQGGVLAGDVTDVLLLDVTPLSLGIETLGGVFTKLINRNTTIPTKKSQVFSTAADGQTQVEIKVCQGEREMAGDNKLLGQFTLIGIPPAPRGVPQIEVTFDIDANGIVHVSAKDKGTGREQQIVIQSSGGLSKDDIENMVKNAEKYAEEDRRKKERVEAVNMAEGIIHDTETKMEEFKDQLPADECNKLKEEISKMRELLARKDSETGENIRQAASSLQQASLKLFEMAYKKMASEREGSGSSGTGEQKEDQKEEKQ
T2 sequence (P38646 47-679, one chain of several): as the sequence (P38646 47-679) above
T1 sequence (P38646 47-679): as above
Sequence of IscU (Escherichia coli) (P0ACD4 whole entry): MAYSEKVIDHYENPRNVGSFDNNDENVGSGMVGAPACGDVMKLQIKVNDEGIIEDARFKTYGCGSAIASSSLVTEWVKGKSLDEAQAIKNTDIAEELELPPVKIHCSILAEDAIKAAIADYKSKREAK

Vmax (maximum ratio of stimulation) of HSPA9 ATPase activity by C-Nfu, 0~150 µM (human HSPA9 (human) [1]): 2.44 fold
Kd (human HSPA9 (human) [2]): 14.9 µM
dH (human HSPA9 (human) [2]): -3.82 kcal/mol
stoichiometry N (human HSPA9 (human) [2]): 0.88
Kd (human HSPA9 (human) [3]): 30.3 µM
dH (human HSPA9 (human) [3]): -2 kcal/mol
stoichiometry N (human HSPA9 (human) [3]): 0.907
Kd (human HSPA9 (human) [4]): 51 µM
dH (human HSPA9 (human) [4]): -3.2 kcal/mol
Kd (human Hsc20 (human) [5]): 11 µM
dH (human Hsc20 (human) [5]): -1.7 kcal/mol
stoichiometry N (human Hsc20 (human) [5]): 0.94
Kd (human Hsc20 (human) [6]): 10 µM
dH (human Hsc20 (human) [6]): -0.57 kcal/mol
stoichiometry N (human Hsc20 (human) [6]): 0.79
Kd (human HSPA9 (human) [7]): 18 µM
dH (human HSPA9 (human) [7]): -7.3 kcal/mol
Molecule: C-terminal domain of human Nfu (from UniProt Q9UMS0 10-254) (domain or fragment)

Molecule: HscA (from UniProt P0A6Z1)
Kd (IscU (Escherichia coli)): 39 µM

Molecule: B1
Kd (full-length human Nfu): 10 ± 1 µM

Molecule: B2
Vmax (maximum ratio of stimulation) of HSPA9 ATPase activity by Nfu, 0~150 µM (human HSPA9 [8]): 3.78 fold
Kd (human HSPA9 [9]): 36 ± 4 µM
dH (human HSPA9 [9]): -4.9 ± 0.1 kcal/mol
stoichiometry N (human HSPA9 [9]): 0.9 ± 0.2
Kd [10]: 9.43 ± 0.07 µM
dH [10]: -1.7 ± 0.1 kcal/mol
stoichiometry N [10]: 0.985 ± 0.04
Kd [11]: 0.3 ± 0.1 µM
dH [11]: -3.4 ± 0.1 kcal/mol
stoichiometry N [11]: 0.95 ± 0.02
stoichiometry N (human Hsc20): 0.93 ± 0.06
Kd (human HSPA9 [12]): 8.3 ± 1.4 µM
dH (human HSPA9 [12]): -6.3 ± 0.7 kcal/mol
stoichiometry N (human HSPA9 [12]): 0.9 ± 0.1
